Experiment [1] deals with T1, Tau191-214 phospho-peptide (pS199) (human, pS199 (phosphoserine); SCBio-4PEG in the ELISA).
T1 construct: also called pS199 peptide
Kind of experiment: BLI.

In experiment [2] the target is T2, AT8 peptide (amino acids 195-215 of tau) (human, phospho-peptide; the phosphorylated sites are not stated; immobilized on streptavidin biosensor tips).
T2 peptide: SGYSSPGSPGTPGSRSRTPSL
Briefly: BLI (Octet), peptide on streptavidin tip. The method, then:
Briefly, phospho-peptides were immobilized on streptavidin biosensor tips and the binding ability of each antibody was assessed using an eight-point concentration gradient.
Background: Biolayer interferometry detects binding as a change in optical thickness at a sensor tip.

Experiment [3] addresses T3, AT270 peptide (pT181; Tau172-186) (human).
T3 peptide: PAKTPPAPK[pT]PPSSG
Briefly: one point ELISA. (In general: An ELISA detects its analyte on a solid surface through an enzyme-linked reagent.)

A further experiment deals with iPHF (UniProt P10636-8 2-441). Briefly: BLI (Octet), antibody on biosensor tip. As to the method:
Anti-human tau antibodies were assessed for affinity for iPHF by Octet (ForteBio, Menlo Park, CA) analysis. A set of recombinant human IgG1 antibodies were prepared with clone-specific variable domain pairs selected from those presented in Table 1 and human IgG1 constant domains. Candidate antibodies were immobilized on biosensor tips (ForteBio) in kinetic buffer (ForteBio). Biosensor tips were then washed before introduction of a solution of iPHF in kinetic buffer for analysis of association and dissociation with candidate antibodies.

For experiment [4], the target named is Tau191-214 phospho-peptide (pS199/pT205) (human, pS199, pT205; SCBio-4PEG in the ELISA). Briefly: one point ELISA. An excerpt: (§1) One-point ELISA was used to determine differential binding based on the individual phosphorylation patterns of each peptide. OD values (450 nm) were collected (as shown in Table 13), where a stronger positive signal is shown as a higher OD value, which is indicative of increased binding.

The target in experiment [5] is Tau191-214 phospho-peptide (pS202) (human, pS202 (phosphoserine); SCBio-4PEG in the ELISA). Kind of experiment: one point ELISA.
Source text: as §1

The target of experiment [6] is T4, SCBio-4PEG-Peptide (Tau191-214) pS199-old (human, pS199; SCBio-4PEG at the peptide as in the table head).
T4 construct: the suffix old is not explained
Briefly: one point ELISA.
Source text: as §1

The target of experiment [7] is Tau191-214 phospho-peptide (pT205) (human, pT205 (phosphothreonine); SCBio-4PEG in the ELISA). Kind of experiment: one point ELISA.
Source text: as §1

Experiment [8] concerns the target Tau191-214 phospho-peptide (pS199/pS202) (human, pS199, pS202; SCBio-4PEG in the ELISA). Briefly: one point ELISA.
Source text: as §1

The target of experiment [9] is T1, Tau191-214 phospho-peptide (pS199). Kind of experiment: one point ELISA.
Source text: as §1

In experiment [10] the target is T5, Enriched paired helical filament (ePHF; sarkosyl insoluble tau) (human, UniProt P10636 2-758, pathological (hyperphosphorylated) tau isolated from brain; sites not stated).
T5 construct: aggregate isolated from AD frontal cortical tissue
Briefly: direct ELISA, coated antigen. As to the method: A set of recombinant human IgG1 antibodies were prepared with clone-specific variable domain pairs selected from those presented in Table 1 and human IgG1 constant domains. These candidate antibodies were analyzed for binding to ePHF and specificity for ePHF over wild type tau by direct ELISA.
For direct ePHF and wildtype tau ELISA, plates were first coated with ePHF or wild type tau. Antigen solutions were prepared in PBS and 50 μL were pipetted into each well. Plates were covered and incubated for one hour at 37° C. or overnight at 4° C. Plates were then washed and blocked by addition of 150 μl of blocking buffer to each well and incubated one hour at room temperature. Plates were then washed before addition of serially diluted candidate antibody samples prepared in blocking buffer. Detection of candidate antibody binding was carried out by washing plates and adding a solution of enzyme-labeled secondary antibody in blocking buffer to each well. Secondary antibody binding was detected by addition of substrate and spectrophotometric analysis of resulting reaction product.

One may read the Kd as the equilibrium constant for the complex coming apart. A high value points to weaker binding. A word on the EC50: it is the concentration needed to bring the measured effect to its halfway point. A lower EC50 goes with an effect from little substance.

Non-standard residues stand in square brackets, D forms with d. No end group written: not given here. pT = C[C@@H](OP(=O)(O)O)[C@H](N)C(=O)O

Chain of iPHF (P10636 other isoform, or with tags, fused parts or gaps): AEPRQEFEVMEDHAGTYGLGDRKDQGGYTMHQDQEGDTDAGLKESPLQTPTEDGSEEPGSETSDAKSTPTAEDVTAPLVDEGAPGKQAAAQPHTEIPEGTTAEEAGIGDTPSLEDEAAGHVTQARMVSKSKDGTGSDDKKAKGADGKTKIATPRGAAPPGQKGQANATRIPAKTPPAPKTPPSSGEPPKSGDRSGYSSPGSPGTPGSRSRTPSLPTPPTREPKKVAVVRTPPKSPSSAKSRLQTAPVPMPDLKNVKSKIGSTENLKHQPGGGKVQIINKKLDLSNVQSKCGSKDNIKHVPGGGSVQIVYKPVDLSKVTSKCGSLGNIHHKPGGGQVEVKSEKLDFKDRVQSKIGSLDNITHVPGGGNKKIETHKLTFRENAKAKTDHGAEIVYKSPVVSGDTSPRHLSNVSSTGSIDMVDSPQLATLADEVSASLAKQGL
T5 sequence (P10636 other isoform, or with tags, fused parts or gaps limits assumed): as the sequence (P10636 other isoform, or with tags, fused parts or gaps) above
T4 sequence (peptide, as listed by the source): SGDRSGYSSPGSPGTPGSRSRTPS

B1: VY020 (antibody, V domains shown)
VH: EVQLVESGGGLVQPGGSLRLSCAASGFTFSSYSMNWVRQAPGKGLEWISYISSSNSTIKYADSVKGRFTISRDNAKNSLYLQMNSLRDEDTAVYYCARRSLGDYWGQGTLVIVSS
VL: EIVLTQSPATLSLSPGERATLSCRASQSVSSYLAWYLQKPGQAPRLLIYDVSNRATGIPARFSGSGSGTDFTLTISRLEPEDFAVYYCQQRRNWPYTFGQGTKLEIK
As for B1, the binding result in experiment [1], in experiment [2] and in [3] was “no binding” throughout. In the experiment with iPHF, this molecule displayed a dissociation constant Kd of 2.6 nM.

B2: VY003 (antibody, V domains shown)
VH: EVQMVESGGGLVQPGGSLTLSCAASGFTFSSYRMNWVRQAPGKGLEWVSYISSSRSAIYYADSVKGRFTISRDNAKNSLYLQMNSLRDEDTAVYYCATLGIGYWGQGTLVTVSS
VL: DIVMTQTPLSSPVTLGQPASISCRSSQSLVHSDGNTYLSWLQQRPGQPPRLLIYKISNRFSGVPDRFSGSGAGTDFTLKITRVEAEDVGIYYCMQVTQFPRTFGQGTKVEIR
Regarding B2, in experiment [1], the binding result is on record as “no binding”. Besides, the OD450 in experiment [4] turned out to be 0.119 OD450 nm; in experiment [5], 0.065 OD450 nm; in experiment [6], 0.062 OD450 nm; in experiment [7], 0.06 OD450 nm; in experiment [8], 0.082 OD450 nm; in experiment [9] it was 0.065 OD450 nm. It took 0.06 nM to reach a half-maximal effect in [10] (EC50). In addition, the results for the Kd (in experiment [2]; with iPHF) were 0.0124 nM and 4.6 nM, respectively.

B3: VY011 (antibody, V domains shown)
VH: QVQLQESGPGLVKPSETLSLTCTVSGGSISNYYWTWIRQPAGKGLEWIGRVYTSGSANYNPSLKSRVTMSVDTSKNQFSLTLSSVTAADTAVYYCARDRGLYYWGQGTLVTVSS
VL: DIVMTQTPLSSLVTLGQPASISCRSSQSLVHSDGNTYLSWLQQRPGQPPRLLIYKISKRFFGVPDRFSGSGAGTDFTLKINRVEAEDVGIYYCMQATQFPLTFGGGTKVEIK
For the molecule B3, the OD450 in experiment [5] and in [7] was 0.06 OD450 nm throughout. The EC50 in experiment [10] was found to be 0.03 nM. The Kd in [2] is 0.0089 nM; in the experiment with iPHF, 2 nM. Besides, the binding result in [3] is given as “no binding”.

The values above are taken from patent US20240059766A1 (VOYAGER THERAPEUTICS, published 2024).
